Test results published in PMC6385295 (Nature Communications, 2019).
Ends that are not written are not given here.

T1: refolded recombinant HLA-A*11:01 monomer (peptide-HLA complex) (Homo sapiens, HLA-A*11:01, strain, also: biotinylated in vitro by biotin ligase, peptide-HLA complex)
T1 construct: HLA-A*11:01 α chain, human, extracellular portion; human beta-2-microglobulin (β2m); the peptide of the crystallised complex is in PDB 6ID4; The methods describe one preparation (biotinylated) for all HLA monomers; copies: + +
T1 chain 1: not shown
T1 chain 2: not shown
T1 chain 3: AIFQSSMTK

B1: human monoclonal alloantibody 2E3, recombinant human IgG1 (antibody, V domains shown)
VH: EVQLVQSGAEVKKPGASVKVSCKASGYTFTGYYMHWVRQAPGQGLEWMGWINPNSGGTSYAQKFQGRVTMTRDTSTSTVYMELSSLRSEDTAVYYCARVTTVIAGPVFDYWGQGTLVTVSS
VL: QAVLTQPSSLSASPGASASLTCTLRSGINVGPYNIYWYQQKPGSPPQYLMRYKSDPDKHQGSAVPSRFSGSKDASANAGILLISGLQSEDEADYYCMIWHNNAWVFGGGTKLTVL
notes: variable region of the 2E3 heavy chain; constant region of human IgG1 from the heavy chain expression vector; full-length 2E3 light chain; IgG1; isolated from a human Fab phage library (Humanyx) by panning on HLA-A*11:01; also called 2E3-IgG1; source: HEK293, cotransfected, purified from culture supernatants (protein G Sepharose)
B2: mouse chimeric form of antibody 2E3 (mouse IgG1 constant region) (antibody, V domains shown)
VH: EVQLVQSGAEVKKPGASVKVSCKASGYTFTGYYMHWVRQAPGQGLEWMGWINPNSGGTSYAQKFQGRVTMTRDTSTSTVYMELSSLRSEDTAVYYCARVTTVIAGPVFDYWGQGTLVTVSS
VL: QAVLTQPSSLSASPGASASLTCTLRSGINVGPYNIYWYQQKPGSPPQYLMRYKSDPDKHQGSAVPSRFSGSKDASANAGILLISGLQSEDEADYYCMIWHNNAWVFGGGTKLTVL
notes: variable region of the 2E3 heavy chain; constant region of mouse IgG1 from the heavy chain expression vector; full-length 2E3 light chain; used for flow cytometry, detected with goat-anti-mouse IgG; also called mouse Fc chimeric antibody; source: HEK293, cotransfected, purified from culture supernatants (protein G Sepharose)

Tests used:
[1] = target: T1, refolded recombinant HLA-A*11:01 …; assay: ELISA; affinity determination: streptavidin-coated plate, increasing concentrations of biotinylated antigen (16 h) and of primary antibody (8 h), room temperature; goat-anti-human IgG-HRP; settings: both partners purified
[2] = target: T1, refolded recombinant HLA-A*11:01 …; assay: quartz crystal microbalance (QCM); Attana Cell A200, 25 °C, PBS running buffer; biotinylated refolded HLA-A*11:01 held on a streptavidin-saturated LNB-carboxyl chip; 2E3-IgG1 injected at 2.5 to 20 nM, single cycle kinetics; settings: both partners purified
[3] = target: T2, HLA-A*43:01 on One Lambda LABScreen Single Antigen beads (Homo sapiens, HLA-A*43:01, strain); assay: One Lambda LABScreen Single Antigen bead assay (OL-SAB), HLA Class I; 2E3-IgG1 at 1 μg mL^−1, diluted 20× in negative control serum; HLA antigens on beads; settings: both partners purified
T2 construct: HLA-A*43:01 α chain, human; human beta-2-microglobulin; β2m and peptide are surmised for a class I HLA antigen; source: bought: One Lambda Inc. (LABScreen Single Antigen HLA Class I beads); copies: + +

[4] = target: T3, HLA-A*34:02 on One Lambda LABScreen Single Antigen beads (Homo sapiens, HLA-A*34:02, strain); assay: as above; settings: both partners purified
T3 construct: HLA-A*34:02 α chain, human; human beta-2-microglobulin; β2m and peptide are surmised for a class I HLA antigen; source: bought: One Lambda Inc. (LABScreen Single Antigen HLA Class I beads); copies: + +

[5] = target: T4, HLA-A*80:01 on One Lambda LABScreen Single Antigen beads (Homo sapiens, HLA-A*80:01, strain); assay: as above; settings: both partners purified
T4 construct: HLA-A*80:01 α chain, human; human beta-2-microglobulin; β2m and peptide are surmised for a class I HLA antigen; source: bought: One Lambda Inc. (LABScreen Single Antigen HLA Class I beads); copies: + +

[6] = target: T5, HLA-A*01:01 on One Lambda LABScreen Single Antigen beads (Homo sapiens, HLA-A*01:01, strain); assay: as above; settings: both partners purified
T5 construct: HLA-A*01:01 α chain, human; human beta-2-microglobulin; β2m and peptide are surmised for a class I HLA antigen; source: bought: One Lambda Inc. (LABScreen Single Antigen HLA Class I beads); copies: + +

[7] = target: T6, HLA-A*11:01 on One Lambda LABScreen Single Antigen beads (Homo sapiens, HLA-A*11:01, strain); assay: as above; settings: both partners purified
T6 construct: HLA-A*11:01 α chain, human; human beta-2-microglobulin; β2m and peptide are surmised for a class I HLA antigen; source: bought: One Lambda Inc. (LABScreen Single Antigen HLA Class I beads); copies: + +

[8] = target: T7, HLA-B*73:01 on One Lambda LABScreen Single Antigen beads (Homo sapiens, HLA-B*73:01, strain); assay: as above; settings: both partners purified
T7 construct: HLA-B*73:01 α chain, human; human beta-2-microglobulin; β2m and peptide are surmised for a class I HLA antigen; source: bought: One Lambda Inc. (LABScreen Single Antigen HLA Class I beads); copies: + +

[9] = target: T8, HLA-A*66:01 on One Lambda LABScreen Single Antigen beads (Homo sapiens, HLA-A*66:01, strain); assay: as above; settings: both partners purified
T8 construct: HLA-A*66:01 α chain, human; has Asp90; human beta-2-microglobulin; β2m and peptide are surmised for a class I HLA antigen; source: bought: One Lambda Inc. (LABScreen Single Antigen HLA Class I beads); copies: + +

[10] = target: T9, HLA-A*26:01 on One Lambda LABScreen Single Antigen beads (Homo sapiens, HLA-A*26:01, strain); assay: as above; settings: both partners purified
T9 construct: HLA-A*26:01 α chain, human; human beta-2-microglobulin; β2m and peptide are surmised for a class I HLA antigen; source: bought: One Lambda Inc. (LABScreen Single Antigen HLA Class I beads); copies: + +

[11] = target: T10, HLA-A*36:01 on One Lambda LABScreen Single Antigen beads (Homo sapiens, HLA-A*36:01, strain); assay: as above; settings: both partners purified
T10 construct: HLA-A*36:01 α chain, human; human beta-2-microglobulin; β2m and peptide are surmised for a class I HLA antigen; source: bought: One Lambda Inc. (LABScreen Single Antigen HLA Class I beads); copies: + +

[12] = target: T11, HLA-A*34:01 on One Lambda LABScreen Single Antigen beads (Homo sapiens, HLA-A*34:01, strain); assay: as above; settings: both partners purified
T11 construct: HLA-A*34:01 α chain, human; human beta-2-microglobulin; β2m and peptide are surmised for a class I HLA antigen; source: bought: One Lambda Inc. (LABScreen Single Antigen HLA Class I beads); copies: + +

[13] = target: T12, HLA-A*25:01 on One Lambda LABScreen Single Antigen beads (Homo sapiens, HLA-A*25:01, strain); assay: as above; settings: both partners purified
T12 construct: HLA-A*25:01 α chain, human; human beta-2-microglobulin; β2m and peptide are surmised for a class I HLA antigen; source: bought: One Lambda Inc. (LABScreen Single Antigen HLA Class I beads); copies: + +

[14] = target: T13, HLA-A*11:01 on the surface of HLA-A*11:01-positive EBV-BCLs (Homo sapiens, HLA-A*11:01, strain); assay: flow cytometry on cells; 0.5×10^6 EBV-BCLs with 5 μg mL^−1 mouse chimeric 2E3, 4 °C, 2 h, PBS with 3% FBS; AlexaFluor-488 goat-anti-mouse IgG; settings: one partner purified
T13 construct: HLA-A*11:01 α chain, endogenous on Epstein-Barr virus transformed B-cell lines; human beta-2-microglobulin, endogenous; The cells carry other HLA alleles too; also called A*11:01 homozygous EBV-BCLs; HLA-A*11:01 expressing target cell lines; source: endogenous, on HLA-typed EBV-BCLs; copies: + +

| Binder | Kd [1] [nM] | Kd [2] [nM] | koff [2] [s⁻¹] | kon [2] [M⁻¹ s⁻¹] | binding result [3] | binding result [4] | binding result [5] | binding result [6] | binding result [7] | binding result [8] | binding result [9] | binding result [10] | binding result [11] | binding result [12] | binding result [13] | binding result [14] |
| --- | --- | --- | --- | --- | --- | --- | --- | --- | --- | --- | --- | --- | --- | --- | --- | --- |
| B1 | 0.16 | 10.3 | 0.00033 | 104000 | binds | binds | binds | binds | binds | binds | binds | binds | binds | binds | binds | – |
| B2 | – | – | – | – | – | – | – | – | – | – | – | – | – | – | – | binds |
